The record followed here is patent US20190127444A1 (NEW YORK UNIVERSITY, published 2019).

Assay [1] concerns the target T1, LukE, recombinant parental form with amino-terminal poly-histidine and streptavidin binding sequences (S. aureus).
T1 chain: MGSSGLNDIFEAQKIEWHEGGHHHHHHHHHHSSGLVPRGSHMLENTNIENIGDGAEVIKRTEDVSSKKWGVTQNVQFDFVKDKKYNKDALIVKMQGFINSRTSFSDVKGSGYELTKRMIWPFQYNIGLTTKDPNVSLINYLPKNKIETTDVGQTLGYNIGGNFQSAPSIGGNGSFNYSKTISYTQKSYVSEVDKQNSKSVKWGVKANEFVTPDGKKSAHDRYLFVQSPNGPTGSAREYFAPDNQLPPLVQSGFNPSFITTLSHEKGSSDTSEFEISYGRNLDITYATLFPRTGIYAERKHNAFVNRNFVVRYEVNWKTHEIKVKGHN
The experiment in a line: BLI, biotinylated LukE on streptavidin pins, Luk26 FN3 at 10 ug/mL. (In general: Biolayer interferometry detects binding as a change in optical thickness at a sensor tip.)

Assay [2] concerns the target T2, LukE, recombinant protein used for HDX mapping (Staphylococcus aureus, UniProt Q2FXB0 24-306).
T2 construct: also called LukE (HDX)
T2 chain: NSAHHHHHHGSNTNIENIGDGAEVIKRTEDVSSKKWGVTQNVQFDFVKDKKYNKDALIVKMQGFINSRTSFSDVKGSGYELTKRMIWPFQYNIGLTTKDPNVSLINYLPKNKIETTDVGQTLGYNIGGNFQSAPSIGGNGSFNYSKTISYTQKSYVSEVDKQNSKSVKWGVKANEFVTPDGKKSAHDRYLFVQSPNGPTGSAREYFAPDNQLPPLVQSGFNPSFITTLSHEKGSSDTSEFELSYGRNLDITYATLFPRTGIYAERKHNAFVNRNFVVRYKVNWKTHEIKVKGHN
Briefly: HDX-MS.

Assay [3] addresses T3, recombinant Protein A (ProSpec-TanyTechnoGene Ltd.), biotinylated (S. aureus, UniProt P38507 37-327).
T3 construct: also called SpA
Briefly: ELISA, biotinylated Protein A on streptavidin plate. For orientation: ELISA stands for enzyme-linked immunosorbent assay.
Procedure: Characterization of Protein A binding was determined by ELISA. Briefly, plates were coated with streptavidin (5 μg/mL in PBS, 50 μL per well) and incubated overnight at 4° C. Plates were washed three times with ELISA wash buffer (0.15M NaCl, 0.02% Tween-20) and then coated with biotinylated Protein A at 2 μg/mL (50 L per well) in PBS for one hour at room temperature. Plates were then washed three times with ELISA wash buffer and then blocked with ELISA blocking buffer (3% BSA in PBS, 200 μL per well). Test articles were then added in a 3-fold dilution series starting at 10 μg/mL and the plates incubated at room temperature for one hour. Plates were then washed three times with ELISA wash buffer and 50 mL per well of HRP-conjugated goat anti-human kappa light chain (Millipore AP502P) added at a 1:15,000 dilution in 3% BSA in PBS and the plates incubated for one hour at room temperature. Plates were then washed five times with ELISA wash buffer and bound HRP detected using the 3,3′,5,5′-Tetramethylbenzidine (TMB; Fitzgerald) as a chromogenic substrate.

The target in assay [4] is T4, LukAB toxoid variant (LukA E323A), recombinant polyhistidine-tagged (S. aureus, UniProt Q2FFA2 28-351; P21224 30-338).
T4 sequence 1: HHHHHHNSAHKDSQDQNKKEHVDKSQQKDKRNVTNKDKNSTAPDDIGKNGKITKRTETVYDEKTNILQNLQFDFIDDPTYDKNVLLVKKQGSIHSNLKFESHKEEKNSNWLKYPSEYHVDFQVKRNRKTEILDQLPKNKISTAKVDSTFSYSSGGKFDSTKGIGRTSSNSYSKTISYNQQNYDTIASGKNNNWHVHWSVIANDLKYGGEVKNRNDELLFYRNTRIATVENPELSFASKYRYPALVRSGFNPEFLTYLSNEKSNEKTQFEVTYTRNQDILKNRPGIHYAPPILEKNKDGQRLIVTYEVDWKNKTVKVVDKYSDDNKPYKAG
T4 sequence 2: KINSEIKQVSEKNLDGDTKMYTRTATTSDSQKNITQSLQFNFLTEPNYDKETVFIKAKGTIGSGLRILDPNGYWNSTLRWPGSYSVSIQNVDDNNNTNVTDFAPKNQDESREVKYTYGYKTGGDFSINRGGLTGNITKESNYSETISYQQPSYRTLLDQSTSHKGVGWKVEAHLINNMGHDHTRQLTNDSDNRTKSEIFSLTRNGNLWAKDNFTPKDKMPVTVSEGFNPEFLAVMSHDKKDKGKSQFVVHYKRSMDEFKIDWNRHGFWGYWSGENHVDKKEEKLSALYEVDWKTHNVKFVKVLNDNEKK
Briefly: BLI, FN3 protein on streptavidin pins, LukAB in solution.

Assay [5] concerns the target T4, LukAB toxoid variant (LukA E323A), …. Briefly: ELISA and neutralisation assay.
For assay [6] the target is unchanged. Briefly: SPR (Biacore T200), single cycle kinetics, 1:1 model.
Assay [7] has the same target. Briefly: SPR (Biacore T200).
Assay [8] has as its target TD peptide. Briefly: ELISA, peptide captured on streptavidin.

B1: Luk26 FN3 protein with carboxyl-terminal poly-histidine sequence (designed binder)
chain: MLPAPKNLVVSRVTEDSARLSWTAPDAAFDSFHIEYAEPWVWGEAIVLTVPGSERSYDLTGLKPGTEYVVFIGGVKGGHNSTPLSAIFTTGGHHHHHH
For the molecule B1, in assay [1], the binding result is given as “binds”.

B2: Luk26 LukE binding FN3 domain (designed binder)
chain: LPAPKNLVVSRVTEDSARLSWTAPDAAFDSFHIEYAEPWVWGEAIVLTVPGSERSYDLTGLKPGTEYVVFIGGVKGGHNSTPLSAIFTT
B2: the binding result in assay [2] was “binds”.

B3: anti-LTA (Pagibaximab) PRASA A6 (Table 1 Construct 33) (antibody, human IgG1, kappa)
heavy: EVMLVESGGGLVQPKGSLKLSCAASGFTFNNYAMNWVRQAPGKGLEWVARIRSKSNNYATFYADSVKDRFTISRDDSQSMLYLQMNNLKTEDTAMYYCVRRGASGIDYAMDYWGQGTSLTVSSASTKGPSVFPLAPSSKSTSGGTAALGCLVKDYFPEPVTVSWNSGALTSGVHTFPAVLQSSGLYSLSSVVTVPSSSLGTQTYICNVNHKPSNTKVDKKVEPKSCDKTHTCPPCPAPPVAGPDVFLFPPKPKDTLMISRTPEVTCVVVDVSHEDPEVKFNWYVDGVEVHNAKTKPREEQYNSTYRVVSVLTVLHQDWLNGKEYKCKVSNAALPAPIAKTISKAKGQPREPQVYTLPPSRDELTKNQVSLTCLVKGFYPSDIAVEWESNGQPENNYKTTPPVLDSDGSFFLYSKLTVDKSRWQQGNVFSCSVMHEALHNRFTQKSLSLSPGK
light: DIVLSQSPAILSASPGEKVTMTCRASSSVNYMHWYQQKPGSSPKPWISATSNLASGVPARFSGSGSGTSYSLTISRVEAEDAATYYCQQWSSNPPTFGGGTMLEIKRTVAAPSVFIFPPSDEQLKSGTASVVCLLNNFYPREAKVQWKVDNALQSGNSQESVTEQDSKDSTYSLSSTLTLSKADYEKHKVYACEVTHQGLSSPVTKSFNRGEC
notes: also called LTA PRASA A6; PRASA A6 variant of pagibaximab
In the case of B3, the binding result in assay [3] is “no binding (tested: 10 µg/mL)”.

B4: TENCON-His-SA (designed binder)
chain: MLPAPKNLVVSRVTEDSARLSWTAPDAAFDSFLIQYQESEKVGEAIVLTVPGSERSYDLTGLKPGTEYTVSIYGVKGGHRSNPLSAIFTTGGHHHHHHGGGLNDIFEAQKIEWHE
notes: also called parental control FN3 domain protein
Consider B4, for which the binding result in assay [4] is recorded as “no binding (tested: 10 ug/mL)”.

B5: Luk17 LukAB binding FN3 domain (designed binder)
chain: LPAPKNLVVSRVTEDSARLSWTAPDAAFDSFWITYEEKFYRGEAIVLTVPGSERSYDLTGLKPGTEYKVWIVGVKGGQGSWPLSAIFTT
In the case of B5, the binding result in assay [5] was “binds”.

B6: mAb 5133 PRASA A6 HC-L4-E-L4-AB (Table 1 Construct 11) (bispecific antibody)
heavy: EVQLVETGGGLVKPGGSLRLSCSASRFSFRDYYMTWIRQAPGKGPEWVSHISGSGSTIYYADSVRGRFTISRDNAKSSLYLQMDSLQADDTAVYYCARGGRATSYYWVHWGPGTLVTVSSASTKGPSVFPLAPSSKSTSGGTAALGCLVKDYFPEPVTVSWNSGALTSGVHTFPAVLQSSGLYSLSSVVTVPSSSLGTQTYICNVNHKPSNTKVDKKVEPKSCDKTHTCPPCPAPPVAGPDVFLFPPKPKDTLMISRTPEVTCVVVDVSHEDPEVKFNWYVDGVEVHNAKTKPREEQYNSTYRVVSVLTVLHQDWLNGKEYKCKVSNAALPAPIAKTISKAKGQPREPQVYTLPPSRDELTKNQVSLTCLVKGFYPSDIAVEWESNGQPENNYKTTPPVLDSDGSFFLYSKLTVDKSRWQQGNVFSCSVMHEALHNRFTQKSLSLSPGKGGGGSGGGGSGGGGSGGGGSMLPAPKNLVVSRVTEDSARLSWTAPDAAFDSFHIEYAEPWVWGEAIVLTVPGSERSYDLTGLKPGTEYVVFIGGVKGGHNSTPLSAIFTTGGGGSGGGGSGGGGSGGGGSMLPAPKNLVVSRVTEDSARLSWTAPDAAFDSFWITYEEKFYRGEAIVLTVPGSERSYDLTGLKPGTEYKVWIVGVKGGQGSWPLSAIFTT
light: EIVLTQSPATLSLSPGERATLSCRASQSVSGYLGWYQQKPGQAPRLLIYGASSRATGIPDRFSGSGSGTDFTLTISRLEPEDFAVYYCQQYGSSPLTFGGGTKLEIKRTVAAPSVFIFPPSDEQLKSGTASVVCLLNNFYPREAKVQWKVDNALQSGNSQESVTEQDSKDSTYSLSSTLTLSKADYEKHKVYACEVTHQGLSSPVTKSFNRGEC
notes: also called CR5133 PRASA A6 HC-L4-E-L4-AB; 4×4 variant
As to B6, the dissociation constant Kd (in general, a measure of binding affinity in units of concentration) in assay [6] came to 0.012 nM. The “fold higher binding affinity than Construct 6” value in assay [7] was around 6 fold.

B7: mAb 5133 (CR5133, IgG1 wt; Table 1 Construct 1) (antibody)
heavy: not shown
light: B6 light
As to B7, the binding result in assay [8] is listed as “no binding”.
